Measurements reported in IntAct's records for PubMed 26320582.

Biological target: tom1_human TOM1 (UniProt O60784)
Sequence (O60784 whole entry): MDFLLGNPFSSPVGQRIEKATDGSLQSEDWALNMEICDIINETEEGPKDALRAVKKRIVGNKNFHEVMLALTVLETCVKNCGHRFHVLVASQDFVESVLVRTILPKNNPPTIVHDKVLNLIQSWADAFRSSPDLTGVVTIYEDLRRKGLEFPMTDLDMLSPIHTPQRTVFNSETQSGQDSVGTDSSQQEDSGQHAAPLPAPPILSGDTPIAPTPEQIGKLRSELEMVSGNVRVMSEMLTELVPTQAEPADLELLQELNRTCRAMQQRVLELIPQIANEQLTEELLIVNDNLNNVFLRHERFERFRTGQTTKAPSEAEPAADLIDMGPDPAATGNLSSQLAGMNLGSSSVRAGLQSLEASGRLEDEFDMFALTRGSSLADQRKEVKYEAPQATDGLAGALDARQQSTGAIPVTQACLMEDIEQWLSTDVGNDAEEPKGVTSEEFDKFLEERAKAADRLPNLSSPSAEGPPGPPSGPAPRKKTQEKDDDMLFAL

| effect of a mutation on the interaction | Substance |
| --- | --- |
| decreasing interaction strength | Toll-interacting protein (Homo sapiens) (from UniProt Q9H0E2-1) D20A;R23A |
| decreasing interaction strength | Toll-interacting protein (Homo sapiens) (from UniProt Q9H0E2-1) F21A |
| decreasing interaction strength | Toll-interacting protein (Homo sapiens) (from UniProt Q9H0E2-1) R9A;V12A |
